Patent publication US20220259593A1, “CONTROL OF MAMMALIAN GENE DOSAGE USING CRISPR” (The Regents of the University of California, priority 2019, published 2022)

System: K562 CRISPRi cells
Assay: Constant region variant library pooled growth screen, K562
Assay type: cell-based, human
Details: sgRNA constant region variants, un-modified constant region cr995
Summary of the method: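 Library of sgRNA constant-region variants, each paired with 36 targeting sequences (essential-gene and non-targeting), transduced in duplicate into K562 CRISPRi cells, puromycin-selected and grown 4–8 days at >2000× coverage. Activity per variant is its growth phenotype normalised to the same targeting sequence with unmodified constant region.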

[1] = relative to the original, CRISPRi
[2] = activity relative to the original

Molecule	Mean relative activity [1]	Mean relative activity [2]
cr071 (nucleic acid, listed as DNA, chemistry not fully specified) guide: GTTTACGGGCTAAGCTGGAAACAGCATAGCAAGTTTAAATAAGGCTAGTCCGTTATCAACTTGAAAAAGTGGCACCGAGTCGGTGCT	0.475	
cr493 (nucleic acid, listed as DNA, chemistry not fully specified) guide: GTTTAAGAGCTAAGCTGGAAACAGCATAGCAAGTTTAAATAAGGCTAGCCCGTTACAAACTTGAAAAAGTGGCACCGAGTCGGTGCT	0.4736	
cr399 (nucleic acid, listed as DNA, chemistry not fully specified) guide: GTTTAAGAGCTAAGCTGGAAACAGCATAGCAAGTTTAAATAAGGCTAGTCCGTTATCAACTTGAAAAAGTGGCACCGAGTCCGTGCT	0.4727	
cr240 (nucleic acid, listed as DNA, chemistry not fully specified) guide: GTTTAAGAGCTAAGCTGGAAACAGCATAGCAAGTTTAAATAAGGCTAGTCCGTTAACAACTTGAAAAAGTGGCACCGAGTCGGTGCT		1.046
cr721 (nucleic acid, listed as DNA, chemistry not fully specified) guide: GTTTAAGAGCTAAGCTGGAAACAGCATAGCAAGTTTAAATAAGGCTAGTCCGCTATTAACTTGAAAAAGTGGCACCGAATCGGTGCT	0.4696	
cr904 (nucleic acid, listed as DNA, chemistry not fully specified) guide: GTTTAAGAGCTAAGCTGGAAACAGCATAGCAAGTTTAAATAAGTCTAGTACGTTATCAATTTGAAAAAATGGCAACGAGTCGTTGCT	0.4677	
cr163 (nucleic acid, listed as DNA, chemistry not fully specified) guide: GTTTAAGAGCTAAGCTGGAAACAGCATAGCAAGCTTAAATAAGGCTAGTCCGTTATCAACTTGAAAAAGTGGCACCGAGTCGGTGCT	0.4662	
cr758 (nucleic acid, listed as DNA, chemistry not fully specified) guide: GTTTAAGAGCTAAGCTGGAAACAGCATAGCAAGCTTAAATAAGGCTAGTCCGCTATCAACTTGAAAAAGTGGCACCGAGTCGGTGCT	0.4614	
cr405 (nucleic acid, listed as DNA, chemistry not fully specified) guide: GTTTAAGAGCTAAGCTGGAAACAGCATAGCAAGTTTAAATAAGGCTAGTCCGTTATCAACTTGAAAAAGTGTCAGCAAGTTGCTGAT	0.4582	
cr920 (nucleic acid, listed as DNA, chemistry not fully specified) guide: GTTTAAGAGCTAAGCTGGAAACAGCATAGCAAGTTTAAATAAGGCTAGTCCGTTGACTACTTGAAAAAGTGGCACCGAGTCGGTGCT	0.4567	
cr171 (nucleic acid, listed as DNA, chemistry not fully specified) guide: GTTTAAGAGCTAAGCTGGAAACAGCATAGCAAGTTTAAATAAGGCTAGTCCGTTATCAACCTGAGAAGGTGGCACCGAGTCGGTGCT		1.044
cr873 (nucleic acid, listed as DNA, chemistry not fully specified) guide: GTTTAAGAGCTAAGCTGGAAACAGCATAGCAAGCTTAAATAAGGCTAGTCCGTTATCAACTAGAAATAGTGGCACCGAGTCGGTGCT	0.4546	
cr955 (nucleic acid, listed as DNA, chemistry not fully specified) guide: GTTTAAGAGCTAAGCTGGAAACAGCATAGCAAGTTTAAATAAGGCTAATCCGTTATCAACTTGAAAAAGTGGCACCGAGTCGGTGCT	0.4541	
cr868 (nucleic acid, listed as DNA, chemistry not fully specified) guide: GTTTAAGAGCTAAGCTGGAAACAGCATAGCAAGTTCAAATAAGGCTAGTCCGTTATCAACTTGAAAAAGTGGCACCGAGTCGGTGCT	0.4517	
cr668 (nucleic acid, listed as DNA, chemistry not fully specified) guide: GTTTAAGAGCTAAGCTGGAAACAGCATAGCAAGTTTAAATAAGGCTAGTCCGTTATCAAGTTGAAAAAGTGGCACCGAGTCGGTGCT	0.4445	
cr866 (nucleic acid, listed as DNA, chemistry not fully specified) guide: GTTTAAGAGCTAAGCTGGAAACAGCATAGCAAGTTTAAATAAGGCTAGTCCGTTATCAACTTGAAAAAGTGTCCCCGAGTCGGTGCT	0.4434	
cr485 (nucleic acid, listed as DNA, chemistry not fully specified) guide: GTTTAAGAGCTAAGCTGGAAACAGCATAGCAAGTTTAAATAAGGCTTGTCCGTTATCAACTTGAAAAAGTTGCACCGTGTCGGTGCT	0.4419	
cr425 (nucleic acid, listed as DNA, chemistry not fully specified) guide: GTTTAAGAGCTAAGCTGGAAACAGCATAGCAAGTTTAAATAAGGCTAGTCCGTTATCATCCTGAAAATGCGGCACCGAGTCGGTGCT	0.4409	
cr486 (nucleic acid, listed as DNA, chemistry not fully specified) guide: GTTTAAGAGCTAAGCTGGAAACAGCATAGCAAGTTTAAATAAGGCTAGTCCGTTATCAACTTGAAAAAGTGAAACTGAGTCAGTTTT	0.4409	
cr460 (nucleic acid, listed as DNA, chemistry not fully specified) guide: GTTTAAGAGCTAAGCTGGAAACAGCATAGCAAGTTTAAATAAGGGTACTCCGTTATCAACTTGAAAAAGTGGCTCAGAGTCTGAGCT	0.4381	
cr566 (nucleic acid, listed as DNA, chemistry not fully specified) guide: GTTTAAGAGCTAAGCTGGAAACAGCATAGCAAGCTTAAATAAGGCTAGTCCGTTATCAACATGAAAATGTGGCACCGAGTCGGTGCT	0.4299	
cr809 (nucleic acid, listed as DNA, chemistry not fully specified) guide: GTTTAAGAGCTAAGCTGGAAACAGCATAGCAAGTTTAAATAAGGCTAGTCCGTTATCAACGTGAAAACGTGGAACCGAGTCGGTTCT		1.042
cr148 (nucleic acid, listed as DNA, chemistry not fully specified) guide: GTTTAAGAGCTAAGCTGGAAACAGCATAGCAAGCTTAAATAAGGCTAGTCCGTTATCAACTTGAAAAAGTGGCGCCGAGTCGGCGCT	0.4276	
cr318 (nucleic acid, listed as DNA, chemistry not fully specified) guide: GTTTAAGAGCTAAGCTGGAAACAGCATAGCAAGTTTAAATATGGCTAGTCCGTTATCAACTTGATAAAGTGGCACCGAGTCGGTGCT	0.4269	
cr040 (nucleic acid, listed as DNA, chemistry not fully specified) guide: ATTTACGAGCTAAGCTGGAAACAGCATAGCAAGTTTAAATAAGGCTAGTCCGTTATCAACTTGAAAAAGTGGCACCGAGTCGGTGCT	0.4233	
cr165 (nucleic acid, listed as DNA, chemistry not fully specified) guide: GTTTAAGAGCTAAGCTGGAAACAGCATAGCAAGTTTAAATAAAGCTAGTCTGTTATCAACTCGAAAGAGTGTCACCGAGTCGGTGAT	0.4224	
cr772 (nucleic acid, listed as DNA, chemistry not fully specified) guide: GTTTAAGAGCTAAGCTGGAAACAGCATAGCAAGTTTAAATAAGGCTAGTCCGTTATCAACTCGAAAGAGTGGCACCGAGTCGGTGCT		1.099
cr736 (nucleic acid, listed as DNA, chemistry not fully specified) guide: GTTTAAGAGCTAAGCTGGAAACAGCATAGCAAGATTAAATAAGGCTAGTCCGTTATCAACTTGAAAAAGTGGCACCGAGTCGGTGCA	0.4208	
cr385 (nucleic acid, listed as DNA, chemistry not fully specified) guide: GTTTAAGAGCTAAGCTGGAAACAGCATAGCAAGTTTAAATAAGGCTAGTCCGTTATCAACTTGAAAAAGTGGCCACCAGTGGTGGCT	0.4186	
cr728 (nucleic acid, listed as DNA, chemistry not fully specified) guide: GTTTAAGAGCTAAGCTGGAAACAGCATAGCAAGTTTAAATAAGGCTAGTCCGTTATCGACTTGACAAAGTGGCACCGAGTCGGTGCT	0.4155	
